Caspase-3/7 activity (apoptosis marker), culture-activated PSCs, 10^3 ng/mL data for one substance are collected here from patent US20190119394A1.

This assay addresses Death receptor 4 (DR4) on primary human pancreatic stellate cells (human) (UniProt O00220). Put plainly: cell-based or functional assay.

On to “mapatumumab (human anti-DR4 antibody, Creative Biolabs)”, for which the caspase-3/7 activity (apoptosis marker), culture-activated PSCs, 10^3 ng/mL turned out to be 1.27 fold.
